# T1: Pol I subunit A49 (S. cerevisiae, UniProt Q01080 1-415)
# T1 construct: Pol I subunit A49, S. cerevisiae; Stood in the assay as a subunit of the whole Pol I; source: endogenous, purified from yeast as part of Pol I
# T1 sequence (looked up): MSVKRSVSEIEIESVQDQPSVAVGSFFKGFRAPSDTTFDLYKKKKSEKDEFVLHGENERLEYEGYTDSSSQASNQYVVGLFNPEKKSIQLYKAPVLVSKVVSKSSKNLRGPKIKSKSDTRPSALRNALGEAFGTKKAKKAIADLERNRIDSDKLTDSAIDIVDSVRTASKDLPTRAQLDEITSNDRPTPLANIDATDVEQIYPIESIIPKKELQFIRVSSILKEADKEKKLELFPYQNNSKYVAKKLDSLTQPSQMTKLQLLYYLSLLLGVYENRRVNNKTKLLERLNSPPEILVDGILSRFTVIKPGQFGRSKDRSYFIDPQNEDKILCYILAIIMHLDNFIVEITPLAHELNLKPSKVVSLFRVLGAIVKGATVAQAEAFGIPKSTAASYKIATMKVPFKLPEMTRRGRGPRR
# T2: Pol I subunit A135 (S. cerevisiae, UniProt P22138 1-1203)
# T2 construct: Pol I subunit A135, S. cerevisiae; Stood in the assay as a subunit of the whole Pol I; source: endogenous, purified from yeast as part of Pol I
# T2 sequence (looked up): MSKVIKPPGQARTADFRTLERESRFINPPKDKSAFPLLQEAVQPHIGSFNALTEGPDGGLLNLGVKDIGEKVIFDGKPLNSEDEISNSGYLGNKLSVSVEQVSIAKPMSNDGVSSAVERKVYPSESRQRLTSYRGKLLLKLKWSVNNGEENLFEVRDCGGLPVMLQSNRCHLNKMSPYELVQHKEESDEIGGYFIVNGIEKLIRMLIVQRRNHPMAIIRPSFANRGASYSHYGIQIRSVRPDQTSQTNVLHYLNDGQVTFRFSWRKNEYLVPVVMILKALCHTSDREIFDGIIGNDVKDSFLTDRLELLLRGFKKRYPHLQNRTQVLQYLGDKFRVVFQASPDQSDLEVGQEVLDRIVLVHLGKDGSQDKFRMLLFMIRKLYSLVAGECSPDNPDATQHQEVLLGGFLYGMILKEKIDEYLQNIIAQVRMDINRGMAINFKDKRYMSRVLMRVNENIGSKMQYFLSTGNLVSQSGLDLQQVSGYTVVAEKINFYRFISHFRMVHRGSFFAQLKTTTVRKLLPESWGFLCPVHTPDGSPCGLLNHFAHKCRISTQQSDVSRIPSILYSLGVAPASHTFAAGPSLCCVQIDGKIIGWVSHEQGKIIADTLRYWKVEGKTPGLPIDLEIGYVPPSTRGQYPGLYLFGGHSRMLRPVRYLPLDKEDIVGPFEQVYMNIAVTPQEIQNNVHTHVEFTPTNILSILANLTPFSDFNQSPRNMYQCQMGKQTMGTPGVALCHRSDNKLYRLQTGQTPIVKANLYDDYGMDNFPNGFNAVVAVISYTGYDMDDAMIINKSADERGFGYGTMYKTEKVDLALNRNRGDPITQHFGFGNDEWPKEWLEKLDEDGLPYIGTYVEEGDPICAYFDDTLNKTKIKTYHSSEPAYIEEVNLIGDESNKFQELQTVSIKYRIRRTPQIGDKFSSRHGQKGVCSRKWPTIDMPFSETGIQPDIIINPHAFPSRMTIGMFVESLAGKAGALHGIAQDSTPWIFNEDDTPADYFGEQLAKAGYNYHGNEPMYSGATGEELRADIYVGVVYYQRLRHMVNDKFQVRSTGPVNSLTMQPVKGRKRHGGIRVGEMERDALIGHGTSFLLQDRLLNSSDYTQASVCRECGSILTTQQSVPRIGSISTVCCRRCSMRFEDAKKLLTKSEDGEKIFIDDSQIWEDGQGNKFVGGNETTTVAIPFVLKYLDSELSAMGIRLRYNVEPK
# B1: Pol I subunit A34.5 (natural protein, S. cerevisiae, UniProt P47006 1-233, looked up)
# chain: MSKLSKDYVSDSDSDDEVISNEFSIPDGFKKCKHLKNFPLNGDNKKKAKQQQVWLIKFPSNVDISKLKSLPVDFESSTTMTIDKHDYKIMDDTDIESSLTQDNLSNMTLLVPSESKESLKIASTAKDNAPLQFDKVFSVSETAKIPAIDYSKVRVPRKDVPKVEGLKLEHFATGYDAEDFHVAEEVKENKKEPKKRSHHDDEEESSEKKKKKKEKREKREKKDKKDKKKKHRD
# notes: Pol I subunit A34.5, S. cerevisiae; Stood in the assay as a subunit of the whole Pol I; source: endogenous, purified from yeast as part of Pol I
# B2: Rrn3 (natural protein, S. cerevisiae)
# chain: MMAFENTSKRPPQDFVAPIDQKKRKVQFSDSTGLVTLQPEEIKDEVFSAAMYSRFVKSALDDLDKNDSTQIGIIANQVALPSKNPERINDKNLNILLDILSSNINRIESSRGTFLIQSIINFEKWWELPPHTLSKYIYFIKILCSSIPKWWQDVSMILVSCFILPIKQTVCHHDMLKYFLRMIPSSMGFIDTYLAKFFPNKNDTRRKLVNYTSNLLKLRGYCSELGFQIWSLLIEKIISIDVELQNELDELDDDVDDDDLEEVDLEDDDDLDDDSGDDDDENCGNSNEELRSGAADGSQSDSEDMDIIEGMDGTEEYNVELTQGIKELSTKLDSILTLVSTHVEEQVTPESLESGEGVGVFNTLTTLFKTHVLPTYYTRSIQYIMFHVSQQQLELMDSFLVTLIDISFAVNEAAEKKIKSLQYLGSYIARAKKLSRTQIIFVASYLTSWLNRYVIEREEEVDQRGGMERFKHFYAAFQALCYIFCFRHNIFRDTDGNWECELDKFFQRMVISKFNPLKFCNENVMLMFARIAQQESVAYCFSIIENNNNERLRGIIGKADSDKKENSAQANTTSSSWSLATRQQFIDLQSYFPYDPLFLKNYKILMKEYYIEWSEASGEYESDGSDD
# notes: Rrn3, Pol I-specific initiation factor, S. cerevisiae; also called Pol I-specific initiation factor Rrn3
# B3: Pol I subunit AC40 (natural protein, S. cerevisiae, UniProt P07703 1-335, looked up)
# chain: MSNIVGIEYNRVTNTTSTDFPGFSKDAENEWNVEKFKKDFEVNISSLDAREANFDLINIDTSIANAFRRIMISEVPSVAAEYVYFFNNTSVIQDEVLAHRIGLVPLKVDPDMLTWVDSNLPDDEKFTDENTIVLSLNVKCTRNPDAPKGSTDPKELYNNAHVYARDLKFEPQGRQSTTFADCPVVPADPDILLAKLRPGQEISLKAHCILGIGGDHAKFSPVSTASYRLLPQINILQPIKGESARRFQKCFPPGVIGIDEGSDEAYVKDARKDTVSREVLRYEEFADKVKLGRVRNHFIFNVESAGAMTPEEIFFKSVRILKNKAEYLKNCPITQ
# notes: Pol I subunit AC40, S. cerevisiae; Stood in the assay as a subunit of the whole Pol I; source: endogenous, purified from yeast as part of Pol I
# B4: Pol I subunit AC19 (natural protein, S. cerevisiae, UniProt P28000 1-142, looked up)
# chain: MTEDIEQKKTATEVTPQEPKHIQEEEEQDVDMTGDEEQEEEPDREKIKLLTQATSEDGTSASFQIVEEDHTLGNALRYVIMKNPDVEFCGYSIPHPSENLLNIRIQTYGETTAVDALQKGLKDLMDLCDVVESKFTEKIKSM
# notes: Pol I subunit AC19, S. cerevisiae; Stood in the assay as a subunit of the whole Pol I; source: endogenous, purified from yeast as part of Pol I
# What was measured:
# Assay in all cases: cryo-EM structure; Pol I incubated with fivefold excess of Rrn3 and CF overnight at 4 °C, SEC in buffer A (150 mM sodium chloride, 5 mM HEPES pH 7.8, 1 mM magnesium chloride, 10 μM zinc chloride, 5 mM dithiothreitol), crosslinked with 1 mM BS3; single-particle reconstruction at 4.8 Å from 63,445 particles; crystal structures fitted as rigid bodies
# Conditions in all cases: both partners purified
# [1] = biological target: T1, Pol I subunit A49
# [2] = biological target: T2, Pol I subunit A135
# [3] = biological target: T3, Pol I subunit A190 (S. cerevisiae, UniProt P10964 1-1664)
# T3 construct: Pol I subunit A190, S. cerevisiae; Stood in the assay as a subunit of the whole Pol I; source: endogenous, purified from yeast as part of Pol I
# [4] = biological target: B2
# [5] = biological target: B3
# T3 sequence (P10964 whole entry): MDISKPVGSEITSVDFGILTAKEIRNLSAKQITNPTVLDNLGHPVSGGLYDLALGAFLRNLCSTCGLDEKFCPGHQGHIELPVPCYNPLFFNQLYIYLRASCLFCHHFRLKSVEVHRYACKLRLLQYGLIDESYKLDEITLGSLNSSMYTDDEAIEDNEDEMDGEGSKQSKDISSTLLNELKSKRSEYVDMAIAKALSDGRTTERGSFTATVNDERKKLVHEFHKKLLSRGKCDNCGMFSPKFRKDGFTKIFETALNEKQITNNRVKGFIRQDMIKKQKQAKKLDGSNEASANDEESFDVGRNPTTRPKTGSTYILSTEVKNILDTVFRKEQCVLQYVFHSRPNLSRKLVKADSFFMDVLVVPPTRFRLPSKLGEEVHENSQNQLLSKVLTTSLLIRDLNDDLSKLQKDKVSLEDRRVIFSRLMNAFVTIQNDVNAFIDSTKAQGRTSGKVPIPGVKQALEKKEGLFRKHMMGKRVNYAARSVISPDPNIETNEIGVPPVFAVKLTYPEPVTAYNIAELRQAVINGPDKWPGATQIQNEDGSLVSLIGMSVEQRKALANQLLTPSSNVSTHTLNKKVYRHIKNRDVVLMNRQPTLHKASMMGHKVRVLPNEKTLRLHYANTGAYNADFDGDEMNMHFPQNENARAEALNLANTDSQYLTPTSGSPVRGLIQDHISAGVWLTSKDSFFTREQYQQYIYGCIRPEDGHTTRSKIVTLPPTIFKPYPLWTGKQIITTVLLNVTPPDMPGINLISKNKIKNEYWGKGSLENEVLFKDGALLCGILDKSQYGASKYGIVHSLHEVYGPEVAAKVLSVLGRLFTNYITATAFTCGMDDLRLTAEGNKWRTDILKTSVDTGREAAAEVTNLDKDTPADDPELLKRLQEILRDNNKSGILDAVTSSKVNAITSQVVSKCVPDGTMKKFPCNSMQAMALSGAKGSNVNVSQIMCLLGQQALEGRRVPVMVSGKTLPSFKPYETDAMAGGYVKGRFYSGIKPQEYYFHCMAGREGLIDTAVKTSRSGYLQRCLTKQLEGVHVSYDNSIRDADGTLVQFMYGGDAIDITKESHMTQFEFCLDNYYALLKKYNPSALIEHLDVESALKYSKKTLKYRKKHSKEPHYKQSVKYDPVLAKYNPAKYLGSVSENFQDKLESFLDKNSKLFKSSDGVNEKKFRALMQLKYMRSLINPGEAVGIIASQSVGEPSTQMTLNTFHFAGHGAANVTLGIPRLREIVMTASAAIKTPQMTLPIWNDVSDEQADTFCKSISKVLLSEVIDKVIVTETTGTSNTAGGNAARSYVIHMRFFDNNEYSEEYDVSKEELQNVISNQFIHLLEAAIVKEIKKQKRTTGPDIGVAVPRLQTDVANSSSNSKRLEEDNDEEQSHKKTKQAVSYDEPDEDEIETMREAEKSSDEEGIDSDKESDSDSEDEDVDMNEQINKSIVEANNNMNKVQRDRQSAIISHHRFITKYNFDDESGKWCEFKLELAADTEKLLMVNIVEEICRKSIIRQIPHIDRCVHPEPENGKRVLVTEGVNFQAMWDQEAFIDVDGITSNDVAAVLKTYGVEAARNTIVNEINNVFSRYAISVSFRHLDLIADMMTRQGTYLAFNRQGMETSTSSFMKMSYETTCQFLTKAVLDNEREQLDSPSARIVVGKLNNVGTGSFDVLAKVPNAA
binder,measurement,setting,value
B1,binding result,[1],binds
B2,binding result,[2],binds
same,binding result,[3],binds
B3,binding result,[4],binds
B4,binding result,[4],binds
same,binding result,[5],binds
